In the nanobody polyreactivity screen of Harvey et al. (2022):

Test: yeast display, Sf9 membrane polyspecificity reagent, FACS + sequencing; frameworks hold sequencing errors
Outline: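 Synthetic nanobody libraries on Saccharomyces cerevisiae BJ5465 were galactose-induced for 36–48 hours, stained 1 hour at 4 °C with 10% biotinylated, detergent-solubilized Sf9 membrane reagent and enriched on streptavidin microbeads. FACS then separated cells into low and high (top ~1%) gates by anti-HA (expression) and streptavidin (reagent binding) fluorescence. Genes were colony-PCR amplified, MiSeq 2 × 250 sequenced and CDR-length filtered. A clone's polyreactivity label is that of its gate of origin.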
With “QVHLVESGGGLVQAGGSLRLSCAASGSIFGYYTMGWYRQAPGKERELVAGIDFITTSTYYADSVKGRFTISRDNAKNTVSLQMNSQKPEDTAVYYCAAYGPLTGYDYWGQGTQVTVSS” the “polyreactivity (PSR sort gate)” value was “low polyreactivity”. With “QVHLVESGGGLVQAGGSLRLSCAASGSIFHRYAMGWYRQAPGKEREFVAAISRSGGSSNYADSVKGRFTISRDNAKNTVYLQMNSLKPEDTAVYYCAARTVTTGGSRYDYWAQGTQVTVSS” the “polyreactivity (PSR sort gate)” value was “high polyreactivity”. With “QVHLVESGGGLVQAGGSLRLSCAASGSIFNLYGMGWYRQAPGKERELVASITSSGTRTYYADSVKGRFTISRDNAKNTVYLQMNSLKPEDTAVYYCAAGSYLRSNRGYWGQGTQVTVSS” the “polyreactivity (PSR sort gate)” value was “high polyreactivity”. For “QVHLVESGGGLVQAGGSLRLSCAASGSIFPYAMGWYRHAPAKERELVAVISWSGASTYYADSVKGRFTISRDNAKNTVYLQMNSLKQEDTAVYYCAVYRYYKLVHLYGYDYWGQGTQVTVSS”, the “polyreactivity (PSR sort gate)” value was “high polyreactivity”. With “QVHLVESGGGLVQAGGSLRLSCAASGSIFVYNAMGWYRQAPGKERELVAAIDTVGSTNYADSVKGRFTISRDNAKNTVYLQMNSLKPEDTAVYYCAVVTTYWSFYEQVIPSNYWGQGTQVTVSS” the “polyreactivity (PSR sort gate)” value was “low polyreactivity”. In the case of “QVHLVESGGGLVQAGGSLRLSCAASGSILLWNTMGWYRQAPGKERELVADIRLSASSTYYADSVKGRFTISRDNAKNTVYLQMNSLKPEDTAVYYCAADEYTPEYCQGYDYWGQGTQVTVSS”, the “polyreactivity (PSR sort gate)” value is reported as “low polyreactivity”. With “QVHLVESGGGLVQAGGSLRLSCAASGSISLNAMGWYTQAPGKERELDAGISNDDGTNYADSVKGRFTISRDNAKNPVYLQMNSLKPEDTAVYYCNAERDFVEDYWTYLRYDYWGQGTQVTVSS” the “polyreactivity (PSR sort gate)” value was “low polyreactivity”. For “QVHLVESGGGLVQAGGSLRLSCAASGSTFAKYAMGWYRQAPRKERELDASIRLSGGSTYYADSVKGRFTISRDNAKTTVYLLMNSQKPEDTAVYYCNKQFATFYYGFDYYYWGQGTQVTVSS”, the “polyreactivity (PSR sort gate)” value was “low polyreactivity”. In the case of “QVHLVESGGGLVQAGGSLRLSCAASGSTFDAYDMGWYRQAPGKERELVAAISSSGGSTYYADSVKGRFTISRDNAKNTVYLQMNSLKPEDTAVYYCAADWSVWDYDYWGQGTQVTVSS”, the “polyreactivity (PSR sort gate)” value is reported as “low polyreactivity”. In the case of “QVHLVESGGGLVQAGGSLRLSCAASGSTFGGNAMGWYRQPPGKERELVAAISSGDSTTYADSVKGRFTISRDNAKNTVYLQMNSLKPEDTAVYYCNADYTDTLTGYFSDEVYHGMDYWGQGTQVTVSS”, the “polyreactivity (PSR sort gate)” value is reported as “low polyreactivity”. With “QVHLVESGGGLVQAGGSLRLSCAASGSTFGRNAMGWYRQAPGKERELVAAISRGGGITYYADSVKGRFTISRDNAKNTVYLQMTSLKPEDTAVYYCNAYLSKYFRYDYWGQGTQVTVSS” the “polyreactivity (PSR sort gate)” value was “high polyreactivity”. For “QVHLVESGGGLVQAGGSLRLSCAASGSTFGYYDMGWYRQAPGKERELVATISSGGGTNYADSVKGRFTISRDNAKNTVYLQMNSLKPEDTAVYYCAVTYGSKKARYSIYPRYGYWGQGTQVTVSS”, the “polyreactivity (PSR sort gate)” value was “low polyreactivity”. With “QVHLVESGGGLVQAGGSLRLSCAASGSTFRKYAMGWYRKAPGKERELDAAITSSGGRTYYADSVKGRFTISRDNAKNSVYLPLNSLKPEDTAVYYCAAGGPRFYSWRSEYDYWGQGTQVTVLS” the “polyreactivity (PSR sort gate)” value was “high polyreactivity”. With “QVHLVESGGGLVQAGGSLRLSCAASGSTFRYYAMGWYRQAPGKERELVATINRSGGSTYYADSVKGRFTISRDNAKNTVYLQMNSLKPEDTAVYYCAATHYYSHFLWFASNYDYWGQGTQVTVSS” the “polyreactivity (PSR sort gate)” value was “high polyreactivity”. For “QVHLVESGGGLVQAGGSLRLSCAASGSTFVRNVMGWYRQAPGKERELVAAITRSGDTTYYADSVKGRFTISRDNAKNTVYLQMNSLKPEDTAVYHCAKRTFVRRGSIYPIDDYWGQGTQVTVSS”, the “polyreactivity (PSR sort gate)” value was “low polyreactivity”. In the case of “QVHLVESGGGLVQAGGSLRLSCAASGSTFVYNTMGWYRQAHGKERELVASISSDGNTDYADSVKGRFTISRDNAKNTVYVQMNSLKPEDTAVYYCAARYYYDWRFVGYDYWGQGTQVTVSS”, the “polyreactivity (PSR sort gate)” value is reported as “low polyreactivity”. With “QVHLVESGGGLVQAGGSLRLSCAASGSTFWYNAMRWYRQAPGKERELVASIDDIGGSTYYADSVKGRFTISRDNAKYTVYLQMNSLKPEDTAVYYCAKDYGSSYVTDSDYWGQATQVTVSS” the “polyreactivity (PSR sort gate)” value was “low polyreactivity”. In the case of “QVHLVESGGGLVQAGGSLRLSCAASGSTFYANAMGWYRQAPGTERELVAAITSGGSTNYADSVKGRFTISRDNAKNTFYLQMNSLKPEDTAVYYCAADGGDQERGDYWGQGTQVTVSS”, the “polyreactivity (PSR sort gate)” value is reported as “low polyreactivity”. For “QVHLVESGGGLVQAGGSLRLSCAASGSTFYVYAMGWYRQAPGKERELVAAISTSTGNTYYADSVKGRFTISRDNAKNTVYLQMNSLKPEDSAVYDCANSGSSSHYYSWGQGTQVTVSS”, the “polyreactivity (PSR sort gate)” value was “low polyreactivity”. With “QVHLVESGGGLVQAGGSLRLSCAASGSTFYYYVMGWYRQAPGKERELVAAINISGGNTYYADSVKGRFTISRDNAKNTVYLKKNSLIPEDTAVYYCAADYRSSRTTEYYYWGQGTQVTVSS” the “polyreactivity (PSR sort gate)” value was “low polyreactivity”. In the case of “QVHLVESGGGLVQAGGSLRLSCAASGSTIDIYDMGWYRQAPGKERELVAAISIGTYADSVKGRFTISRDNAKNTVYLQMNSLKPEDTAVYYCAAQTDTWGYGYDYWGQGTQVTVSS”, the “polyreactivity (PSR sort gate)” value is reported as “high polyreactivity”. In the case of “QVHLVESGGGLVQAGGSLRLSCAASGSTIRFNAMGWYRQAPGKERELVAAISGSGGSTYYADSVKGRFTISRDNAKKTVYLQMNSLKPEDTAVYYCAASASSRSYFKSYYWGQGTQVTVSS”, the “polyreactivity (PSR sort gate)” value is reported as “high polyreactivity”. With “QVHLVESGGGLVQAGGSLRLSCAASGSTIYYNAMGRYRQAHGKERELVPRISRSGGSTYADSVKGRFTISRDNANNTVYLQMNSLKPEDTAVYYCNADPWWRFDYWGQGTQVTVSS” the “polyreactivity (PSR sort gate)” value was “low polyreactivity”. In the case of “QVHLVESGGGLVQAGGSLRLSCAASGSTKGNNAMGWYRQATGKERELVAAISTRGGSTYYADSVKGRFTISRDNAKNTVYLQMNSLKPEDTAVYYCAADFGQYHGAVRKMDYWGQGTQVTVSS”, the “polyreactivity (PSR sort gate)” value is reported as “low polyreactivity”. In the case of “QVHLVESGGGLVQAGGSLRLSCAASGVIFFYYAMGWYRQAPGKESELVAVIDRSGGTTYYADSVKGRFTISRDNAKNTVYLQMNSLKPEDTAVYYCNADDFTYPSGWGFIYDYWGQGTQVTVSS”, the “polyreactivity (PSR sort gate)” value is reported as “low polyreactivity”. In the case of “QVHLVESGGGLVQAGGSLRLSCAASGYIFKVNAMGWYRQATRKERELVAAISSDGGSTYADSVKGRFTISRDNAKNTVYLEFYSLKTEDTAVYYCNVDLESERDPPKYVYWGQGTQVTVSS”, the “polyreactivity (PSR sort gate)” value is reported as “low polyreactivity”. With “QVHLVESGGGLVQAGGSLRLSCAASGYTFSRNAMGWYRQAPGKERELVASISSRGGSTRYADSVKGRFTISRDNAKNTVYLQMNSLKPEDTAVYYCAVRGLYSPFTYGYWGQGTQVTVSS” the “polyreactivity (PSR sort gate)” value was “high polyreactivity”. With “QVHLVESGGGLVQAGGSLRLSCAASGYTFYANAMGWYRQAPGKEREFVASITWSGGSTYYADSVKGRFTISRDNAKNTVYLQKNSLKPEDTAVYYCAAESWFKYDYWGQGTQVTVSS” the “polyreactivity (PSR sort gate)” value was “low polyreactivity”. In the case of “QVHLVESGGGLVQAGGSLRLSCAASGYTSKTYAMGWYRQAPGKEMELVAAINWGSGSTYYADSVKGRFTISRDNAKNTVYLQMNSLKPEDTAVYYCAAEGYYNWYVGYGYWGQGTQVTVSS”, the “polyreactivity (PSR sort gate)” value is reported as “high polyreactivity”. In the case of “QVHLVESGGGLVQAGGSLRLSCAATGSTFPSYTMGWYRQAPGKERELVAVITLRGGSTYYADSVKGRFTISRDNAKNTVYLQMNSLKPEDTAVYYCAANGQLQGWFDMYYWGQGTQVTVSS”, the “polyreactivity (PSR sort gate)” value is reported as “low polyreactivity”. For “QVHLVESGGGLVQAGGSLRLSCADSGSTFVAYAMGWYRQAPGKERDLVAAISKSGVRTYYADSVKGRFTISRDNAKNTVYLVMISLKPEDNAVYVCAADSGDLWGPFGYWGQGTQVTVSS”, the “polyreactivity (PSR sort gate)” value was “low polyreactivity”. For “QVHLVESGGGLVQAGGSLRLSCAPSGRIFFPYAMGWYRQAPGKEREFVAAIRRSGGSTYYADSVKGRFTISRDNAKNTVYLQMNSLKPEDTAVYYCNAPLKRYGYYKYGYWGQGTQVTVSS”, the “polyreactivity (PSR sort gate)” value was “high polyreactivity”. With “QVHLVESGGGLVQAGGSLRLSCASSGRIFEAYAMGWYRQAPGKERELVAAISGSGGSTYYADSVKGRFTISRDNAKNTVYLQMNSLKPEDTAVYYCAARYFVGKGLGYWGQGTQVTVSS” the “polyreactivity (PSR sort gate)” value was “high polyreactivity”. With “QVHLVESGGGLVQAGGSLRLSCASYGRTFGIYAMGWYRQAPGKERELVATISWRGGSTYYADSVKGRFTISRDNAKNTVYLQMNSLKPEDTAVYYCAAETWYSGYTYDYWGQGTQVTVSS” the “polyreactivity (PSR sort gate)” value was “low polyreactivity”. With “QVHLVESGGGLVQAGGSLRLSCDASGITFRRYGMGWYRQAPGKERELVATITSSVGSRTYYADSVKGRFTISRDNAKNTVYLQMNSLKPEDTAVYYCAADHRVYDYEYWGQVTQVTVSS” the “polyreactivity (PSR sort gate)” value was “low polyreactivity”. With “QVHLVESGGGLVQAGGSLRLSCDASGSIFNTYAMGWYRQAPGKESELVATITSGDRTYYADSVNGRFTISRDNAKNSVYLQMNSLNPEDTAVYYCAKRHWFQYRRPDLGRFDYWGQGTQVTVSS” the “polyreactivity (PSR sort gate)” value was “high polyreactivity”. In the case of “QVHLVESGGGLVQAGGSLRLSFAASGIILYDYAMGWNRQAPGKEREMVAGINRSGGITYYADSVKGRFTISRDNAKNTVYFQMNSLIPEDTAVYYCNAVFRYGATRSYRYDYWGQGTQVTVSS”, the “polyreactivity (PSR sort gate)” value is reported as “high polyreactivity”. With “QVHLVESGGGLVQAGGSLRLSFAASGSIFYFNAMGWYRQAPGKERELVAAINYSGGSTYYADSVKGRFTISRDNAKNTVYLQRNSLKPEDTAVYYCAAVTYFGWYPYRMEYWGQGTQVTVSS” the “polyreactivity (PSR sort gate)” value was “high polyreactivity”. For “QVHLVESGGGLVQAGGSLRLSFAASGSTFEDNAMGWYRQAPGKERELVAGISTNGGSTSYADSVKGRFTISRDNAKNTVYLQMNSLKPEVTAVYYCAKGLYVQFDYWGQGTQVTVSS”, the “polyreactivity (PSR sort gate)” value was “low polyreactivity”. With “QVHLVESGGGLVQAGGSLRLSFAASGYTLSDNAMGWYRQAPGKERELVATIDFGGGSTYYADSVKGRFTISRDNAKNTVYLQRNSLKPEDTAVYYCNTEWTSLSTSSLGGRYDHWGQGTQVTVSS” the “polyreactivity (PSR sort gate)” value was “low polyreactivity”.
